From the supplement of paper PMC6757056
± gives the standard deviation of the averaged measurements.

B1: library; a variant is named by its letters at N, in order (parent)
chain: GCUGUCACCGAGAAACUGUGAAGUAUAUCUUAAACCUGGGCACUUAAAAGAUAUAUGGAGUUAGUAGUGCAACCUGCUCGGUCUGAUGAGUCCNNNNNNGGACGAAACAGC

Columns and labels:
cyclic di-GMP [1] = variants of: B1; assay: normalized RNA/DNA level without ligand (relative to sTRSVctl = 100) (log10 (% of sTRSVctl)); HEK293T; ligand: cyclic di-GMP (c-di-GMP-II aptamer); higher = less ribozyme self-cleavage, higher mRNA level; settings: reporter: mCherry (pCS4076), ligand present: no
How it was run: (§1)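 RNA level was computed as RNA reads over DNA reads divided by a spiked-in non-cleaving sequence or by the top sequences, then scaled and log-transformed. Scaling was ×100 with log10, the top group was 25 sequences, and the threshold was ≥100 DNA reads. The reads came from HEK293T cells transfected at 4 µg per 6-well well with ribozyme switch library plasmids (mCherry, or eGFP in some ligand experiments). Total RNA was extracted with EDTA 72 h after transfection, with any ligand added 1 h before it.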

cyclic di-GMP [2] = variants of: B1; assay: normalized RNA/DNA level with ligand (relative to sTRSVctl = 100) (log10 (% of sTRSVctl)); HEK293T; ligand: cyclic di-GMP (c-di-GMP-II aptamer); ligand concentration (+) RNA-Seq: 1 mM; higher = less ribozyme self-cleavage, higher mRNA level; settings: reporter: mCherry (pCS4076), ligand present: yes
How it was run: as §1

| Variant | normalized RNA/DNA level without ligand (log10) (cyclic di-GMP [1]) | normalized RNA/DNA level with ligand (log10) (cyclic di-GMP [2]) |
| --- | --- | --- |
| AUCUAA | 1.52 ± 0.019 | 1.7 ± 0.091 |
| AUCUAU | 1.71 ± 0.073 | 1.79 ± 0.067 |
| CUCCUU | 1.61 ± 0.071 | 1.79 ± 0.051 |
| CUCCUC | 1.76 ± 0.026 | 1.87 ± 0.11 |
| CUCCUG | 1.78 ± 0.065 | 1.85 ± 0.13 |
| GUCAGA | 1.56 ± 0.057 | 1.76 ± 0.076 |
| GUCAGU | 1.63 ± 0.022 | 1.77 ± 0.15 |
| GUCAGC | 1.67 ± 0.017 | 1.83 ± 0.17 |
| AUCACU | 1.74 ± 0.057 | 1.88 ± 0.12 |
| AUCACG | 1.64 ± 0.012 | 1.78 ± 0.13 |
| AUCACC | 1.77 ± 0.035 | 1.87 ± 0.068 |
| AUCACA | 1.64 ± 0.069 | 1.8 ± 0.062 |
| CUCGUU | 1.762 ± 0.005 | 1.86 ± 0.1 |
| CUCGUA | 1.6 ± 0.025 | 1.76 ± 0.086 |
| CUCGUG | 1.63 ± 0.047 | 1.82 ± 0.088 |
| CUCGUC | 1.81 ± 0.032 | 1.93 ± 0.098 |
| CUGAAG | 1.59 ± 0.018 | 1.73 ± 0.03 |
| CUGAAC | 1.603 ± 0.0055 | 1.77 ± 0.084 |
| GUCAAG | 1.57 ± 0.031 | 1.75 ± 0.077 |
| GUCCAG | 1.76 ± 0.07 | 1.83 ± 0.1 |

| Variant | normalized RNA/DNA level without ligand (log10) (cyclic di-GMP [1]) | normalized RNA/DNA level with ligand (log10) (cyclic di-GMP [2]) |
| --- | --- | --- |
| GUCCAC | 1.6752 ± 0.00073 | 1.82 ± 0.054 |
| GUCCAU | 1.66 ± 0.054 | 1.83 ± 0.14 |
| AUCUGA | 1.56 ± 0.099 | 1.71 ± 0.079 |
| AUCUGU | 1.731 ± 0.012 | 1.88 ± 0.15 |
| CUCCCU | 1.661 ± 0.0018 | 1.76 ± 0.05 |
| CUCCCC | 1.82 ± 0.032 | 1.9 ± 0.089 |
| CUCCCG | 1.79 ± 0.088 | 1.91 ± 0.14 |
| CUCCCA | 1.718 ± 0.0069 | 1.87 ± 0.052 |
| GUCUGG | 1.68 ± 0.036 | 1.86 ± 0.049 |
| GUCUGA | 1.54 ± 0.018 | 1.75 ± 0.11 |
| GUCUGC | 1.732 ± 0.012 | 1.87 ± 0.12 |
| CUCCGC | 1.78 ± 0.019 | 1.91 ± 0.073 |
| CUCCGG | 1.79 ± 0.072 | 1.87 ± 0.17 |
| CUCCGA | 1.69 ± 0.016 | 1.82 ± 0.15 |
| UUCUCA | 1.78 ± 0.073 | 1.9 ± 0.087 |
| UUCUCU | 1.8 ± 0.039 | 1.91 ± 0.11 |
| UUCUCG | 1.8 ± 0.065 | 1.91 ± 0.15 |
| UUCUCC | 1.83 ± 0.031 | 1.9 ± 0.1 |
| GUCCGG | 1.84 ± 0.12 | 1.96 ± 0.11 |
| GUCCGA | 1.63 ± 0.024 | 1.78 ± 0.14 |

| Variant | normalized RNA/DNA level without ligand (log10) (cyclic di-GMP [1]) | normalized RNA/DNA level with ligand (log10) (cyclic di-GMP [2]) |
| --- | --- | --- |
| GUCCGC | 1.84 ± 0.03 | 1.93 ± 0.071 |
| GUCCGU | 1.65 ± 0.038 | 1.82 ± 0.069 |
| GUCACC | 1.708 ± 0.011 | 1.85 ± 0.055 |
| GUCACA | 1.663 ± 0.0013 | 1.77 ± 0.17 |
| UUCGGU | 1.75 ± 0.029 | 1.87 ± 0.056 |
| UUCGGG | 1.774 ± 0.011 | 1.9 ± 0.13 |
| UUCCUG | 1.776 ± 0.017 | 1.91 ± 0.11 |
| UUCCUA | 1.68 ± 0.018 | 1.83 ± 0.11 |
| UUCCUC | 1.779 ± 0.013 | 1.91 ± 0.1 |
| UUCCUU | 1.73 ± 0.018 | 1.9 ± 0.099 |
| AUCUUA | 1.61 ± 0.037 | 1.76 ± 0.12 |
| AUCUUC | 1.81 ± 0.038 | 1.92 ± 0.086 |
| AUCUUU | 1.69 ± 0.046 | 1.86 ± 0.1 |
| AUCUUG | 1.657 ± 0.0055 | 1.81 ± 0.093 |
| GUCUAU | 1.64 ± 0.045 | 1.78 ± 0.14 |
| GUCUAA | 1.56 ± 0.069 | 1.72 ± 0.098 |
| GUCUAG | 1.62 ± 0.066 | 1.79 ± 0.072 |
| GUCUAC | 1.739 ± 0.0096 | 1.89 ± 0.14 |
